In patent US20070212365A1:

How the values were obtained:
[1] = target: synthetic peptide … (antigen from mpf00920 polypeptide); test: ELISA on the antigen; pre-immune serum at 8000-fold dilution
[2] = target: synthetic peptide … (antigen from mpf00920 polypeptide); test: ELISA on the antigen; pre-immune serum at 4000-fold dilution
[3] = target: synthetic peptide … (antigen from mpf00920 polypeptide); test: ELISA on the antigen; pre-immune serum at 16000-fold dilution
[4] = target: synthetic peptide … (antigen from mpf00920 polypeptide); test: ELISA on the antigen; pre-immune serum at 2000-fold dilution
[5] = target: synthetic peptide … (antigen from mpf00920 polypeptide); test: ELISA on the antigen; pre-immune serum at 1000-fold dilution

- absorbance (490 nm) (absorbance (490 nm)) [1]: 0.084
- absorbance (490 nm) (absorbance (490 nm)) [2]: 0.089
- absorbance (490 nm) (absorbance (490 nm)) [3]: 0.076
- absorbance (490 nm) (absorbance (490 nm)) [4]: 0.101
- absorbance (490 nm) (absorbance (490 nm)) [5]: 0.171
Substance: control serum (rabbit serum without immunization)
